This is an account of results in article PMC2760398.

In assay [1] the target is FKBP12-TEVct (118/119 sTEVp, C-terminal TEVp fragment fused to FKBP12) (not stated | tobacco etch virus). The note with it: scale: % of the median FRET efficiency of control cells.
The target is the same in assay [2]. The note with it: scale: % of the median FRET efficiency of control cells. This is another data set of the same source.
Assay [3] addresses C34V-FKBP12-TEVct (not stated | tobacco etch virus). The note with it: scale: % of the median FRET efficiency of control cells.
Assay [4] addresses FKBP12-TEVct (118/119 sTEVp, C-terminal TEVp fragment fused to FKBP12) (not stated | tobacco etch virus). The note with it: scale: % of the median FRET efficiency of control cells. This is another data set of the same source.
Assay [5] has as its target Lyn11-FKBP12-sTEVp-CT (membrane-targeted FKBP12-TEVct of pBud-mem-sTEVp) (not stated | tobacco etch virus). The note with it: scale: % of the median FRET efficiency of control cells.
Assay [6] has as its target FKBP12-TEVct (118/119 sTEVp, C-terminal TEVp fragment fused to FKBP12) (not stated | tobacco etch virus). The note with it: scale: % of the median FRET efficiency of control cells. The source holds these as a separate data set.
In assay [7] the target is Lyn11-FKBP12-sTEVp-CT (membrane-targeted FKBP12-TEVct of pBud-mem-sTEVp) (not stated | tobacco etch virus). The note with it: scale: % of the median FRET efficiency of control cells. This is another data set of the same source.
Assay [8] shares this target.

With “FRB-TEVnt (118/119 sTEVp, N-terminal TEVp fragment fused to FRB) (from UniProt P42346 2018-2114)”, in assay [1], the TEVp activity by fragment complementation: median FRET efficiency of the substrate C34V in HeLa cells, 450 ng of each 118/119 sTEVp plasmid, 100 nM rapamycin for 3 hours at 37°C was found to be 3 and the background TEVp activity: median FRET efficiency of the substrate C34V in HeLa cells, 450 ng of each 118/119 sTEVp plasmid, without rapamycin was found to be 83. In addition, in assay [2], the TEVp activity by fragment complementation: median FRET efficiency of the substrate C34V in HeLa cells, 125 ng sTEVp, rapamycin for 3 hours was 3 and the background TEVp activity: median FRET efficiency of the substrate C34V in HeLa cells, 125 ng sTEVp (optimum of a titration of the plasmid mass from 40 ng upwards), without rapamycin stood at 96. Besides, in assay [3], the background TEVp activity in cis: median FRET efficiency of C34V-FKBP12-TEVct (300 ng) in HeLa cells with 25 ng FRB-TEVnt, without rapamycin (significant decrease at 25 ng FRB-TEVnt and above) is 84; the inducible TEVp activity in cis: median FRET efficiency of C34V-FKBP12-TEVct (300 ng) in HeLa cells with 25 ng FRB-TEVnt, rapamycin for 3 hours (significant reduction also at 12 and 100 ng FRB-TEVnt) stood at 0. In assay [4], this substance had a background TEVp activity: median FRET efficiency of soluble C34V (100 ng) in HeLa cells, 300-1000 ng pBud-sol-sTEVp, without rapamycin (97% at 300 ng, 84% at 1000 ng) of 97 and an inducible TEVp activity: median FRET efficiency of soluble C34V (100 ng) in HeLa cells, 300-1000 ng pBud-sol-sTEVp, 100 nM rapamycin for 3 hours (9% at 300 ng, 3% at 1000 ng) of 9. In assay [5], this substance came in with a background TEVp activity: median FRET efficiency of soluble C34V (100 ng) in HeLa cells, 300-1000 ng pBud-mem-sTEVp, without rapamycin (no significant difference from control) of 100 and an inducible TEVp activity: median FRET efficiency of soluble C34V (100 ng) in HeLa cells, 300-1000 ng pBud-mem-sTEVp, rapamycin (30% at 300 ng, 12% at 1000 ng) of 30. In assay [6], this substance displayed a background TEVp activity: median FRET efficiency of membrane-targeted mem-C34V (100 ng) in HeLa cells, 300-1000 ng pBud-sol-sTEVp, without rapamycin (98% at 300 ng, 89% at 1000 ng) of 98 and an inducible TEVp activity: median FRET efficiency of membrane-targeted mem-C34V (100 ng) in HeLa cells, 300-1000 ng pBud-sol-sTEVp, rapamycin (7% at 300 ng, 3% at 1000 ng) of 7. Also, in assay [7], the background TEVp activity: median FRET efficiency of membrane-targeted mem-C34V in HeLa cells, 300-1000 ng pBud-mem-sTEVp, without rapamycin (56% at 300 ng, 46% at 1000 ng) was determined as 56 and the inducible TEVp activity: median FRET efficiency of membrane-targeted mem-C34V in HeLa cells, 300-1000 ng pBud-mem-sTEVp, rapamycin for 3 hours is less than 4. The inducible TEVp activity: median degree of current inactivation 1-(I95ms/Imax) of EGFP-KV3.4 (1 µg RNA) in HEK-293 cells, 1-3 µg pBud-mem-sTEVp, rapamycin (0.31 at 1 µg, 0.53 at 3 µg) in assay [8] was determined as 0.53.
